T1: Boi1, P38041
T1 sequence (P38041 1-86, looked up): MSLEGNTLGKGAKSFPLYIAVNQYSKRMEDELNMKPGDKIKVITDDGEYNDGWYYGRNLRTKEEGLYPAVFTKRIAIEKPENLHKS

T2: Hof1, Q05080
T2 sequence (Q05080 590-669, looked up): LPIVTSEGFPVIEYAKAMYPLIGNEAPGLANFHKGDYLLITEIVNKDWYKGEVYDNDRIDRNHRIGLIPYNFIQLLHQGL

T3: Lsb4, P32793
T3 sequence (P32793 402-468, looked up): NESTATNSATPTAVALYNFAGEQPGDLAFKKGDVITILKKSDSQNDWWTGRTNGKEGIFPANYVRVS

T4: Lsb1, P53281
T4 sequence (P53281 45-122, looked up): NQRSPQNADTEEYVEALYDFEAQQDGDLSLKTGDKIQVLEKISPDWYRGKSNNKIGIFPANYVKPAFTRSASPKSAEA

T5: Myo5, Q04439
T5 sequence (Q04439 1072-1160, looked up): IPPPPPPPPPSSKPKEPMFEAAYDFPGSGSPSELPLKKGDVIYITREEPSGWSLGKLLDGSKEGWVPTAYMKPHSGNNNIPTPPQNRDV

T6: Lsb3, P43603
T6 sequence (P43603 385-451, looked up): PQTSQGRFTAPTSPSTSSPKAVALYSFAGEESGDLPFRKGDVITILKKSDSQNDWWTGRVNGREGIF

T7: Cdc25, P04821
T7 sequence (P04821 50-136, looked up): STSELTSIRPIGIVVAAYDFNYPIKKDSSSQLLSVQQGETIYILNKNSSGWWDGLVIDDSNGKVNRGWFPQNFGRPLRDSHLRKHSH

T8: Sla1-3, P32790
T8 sequence (P32790 344-424, looked up): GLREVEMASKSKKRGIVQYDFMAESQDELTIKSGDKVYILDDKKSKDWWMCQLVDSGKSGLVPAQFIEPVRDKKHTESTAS

T9: Boi2, P39969
T9 sequence (P39969 32-116, looked up): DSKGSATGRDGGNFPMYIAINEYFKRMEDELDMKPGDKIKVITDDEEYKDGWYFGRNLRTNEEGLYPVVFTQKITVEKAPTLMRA

T10: Nbp2, Q12163
T10 sequence (Q12163 103-180, looked up): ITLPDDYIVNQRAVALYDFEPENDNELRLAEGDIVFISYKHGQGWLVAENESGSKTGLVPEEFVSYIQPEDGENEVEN

T11: Cyk3, Q07533
T11 sequence (Q07533 1-83, looked up): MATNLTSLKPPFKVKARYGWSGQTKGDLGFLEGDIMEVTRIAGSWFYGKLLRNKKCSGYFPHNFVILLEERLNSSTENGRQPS

T12: Pex13, P80667
T12 sequence (P80667 295-386, looked up): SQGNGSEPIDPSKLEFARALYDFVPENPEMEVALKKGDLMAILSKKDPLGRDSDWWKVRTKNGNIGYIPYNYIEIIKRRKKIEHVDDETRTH

T13: Bud14, P27637
T13 sequence (P27637 247-328, looked up): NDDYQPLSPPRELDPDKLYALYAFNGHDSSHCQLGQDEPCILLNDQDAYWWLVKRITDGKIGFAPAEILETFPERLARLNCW

T14: Bzz1-2, P38822
T14 sequence (P38822 568-633, looked up): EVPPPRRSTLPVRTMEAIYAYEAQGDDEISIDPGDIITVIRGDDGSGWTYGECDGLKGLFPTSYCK

T15: Hse1, P38753
T15 sequence (P38753 208-285, looked up): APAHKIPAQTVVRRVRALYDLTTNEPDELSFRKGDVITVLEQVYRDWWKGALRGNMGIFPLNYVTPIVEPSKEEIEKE

T16: Abp1, P15891
T16 sequence (P15891 535-592, looked up): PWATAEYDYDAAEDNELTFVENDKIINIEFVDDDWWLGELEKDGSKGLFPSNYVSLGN

T17: Sla1-2, P32790
T17 sequence (P32790 60-140, looked up): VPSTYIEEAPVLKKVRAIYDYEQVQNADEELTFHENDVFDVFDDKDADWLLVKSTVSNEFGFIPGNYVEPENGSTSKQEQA

T18: Bbc1, P47068
T18 sequence (P47068 1-78, looked up): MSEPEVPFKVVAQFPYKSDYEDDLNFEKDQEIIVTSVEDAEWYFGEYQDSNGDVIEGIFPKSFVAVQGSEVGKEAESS

T19: Bzz1-1, P38822
T19 sequence (P38822 478-572, looked up): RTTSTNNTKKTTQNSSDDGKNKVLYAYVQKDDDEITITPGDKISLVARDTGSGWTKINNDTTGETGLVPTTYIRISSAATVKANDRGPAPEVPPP

T20: Pin3, Q06449
T20 sequence (Q06449 53-122, looked up): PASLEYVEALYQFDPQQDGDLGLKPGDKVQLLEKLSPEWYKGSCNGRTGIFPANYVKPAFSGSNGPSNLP

T21: Fus1, P11710
T21 sequence (P11710 432-512, looked up): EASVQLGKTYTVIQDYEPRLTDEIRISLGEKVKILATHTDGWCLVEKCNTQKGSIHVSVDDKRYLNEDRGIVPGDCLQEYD


Assays:
Test in all cases: SPOT array
Boi1, P38041 = target: T1, Boi1, P38041; conditions: median of control spots 1162
Bem1-2, P29366 = conditions: median of control spots 4347
Sequence of Bem1-2, P29366 (P29366 139-227): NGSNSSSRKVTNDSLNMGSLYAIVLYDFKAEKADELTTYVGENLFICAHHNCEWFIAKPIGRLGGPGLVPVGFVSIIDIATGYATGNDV

Hof1, Q05080 = target: T2, Hof1, Q05080; conditions: median of control spots 4086
Lsb4, P32793 = target: T3, Lsb4, P32793; conditions: median of control spots 397
Lsb1, P53281 = target: T4, Lsb1, P53281; conditions: median of control spots 388
Myo5, Q04439 = target: T5, Myo5, Q04439; conditions: median of control spots 471
Lsb3, P43603 = target: T6, Lsb3, P43603; conditions: median of control spots 406
Cdc25, P04821 = target: T7, Cdc25, P04821; conditions: median of control spots 969
Sla1-3, P32790 = target: T8, Sla1-3, P32790; conditions: median of control spots 5475
Boi2, P39969 = target: T9, Boi2, P39969; conditions: median of control spots 1161
Nbp2, Q12163 = target: T10, Nbp2, Q12163; conditions: median of control spots 357
GST = conditions: median of control spots 978
Cyk3, Q07533 = target: T11, Cyk3, Q07533; conditions: median of control spots 1451
Pex13, P80667 = target: T12, Pex13, P80667; conditions: median of control spots 1341
Sho1, P40073 = conditions: median of control spots 1148
Sequence of Sho1, P40073 (P40073 287-367): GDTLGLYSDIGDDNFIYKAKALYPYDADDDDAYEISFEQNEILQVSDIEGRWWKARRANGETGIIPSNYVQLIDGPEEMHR

Bud14, P27637 = target: T13, Bud14, P27637; conditions: median of control spots 956
Rvs167, P39743 = conditions: median of control spots 2707
Sequence of Rvs167, P39743 (P39743 419-482): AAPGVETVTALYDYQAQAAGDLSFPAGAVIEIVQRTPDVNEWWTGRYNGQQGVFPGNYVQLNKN

Bzz1-2, P38822 = target: T14, Bzz1-2, P38822; conditions: median of control spots 4538
Hse1, P38753 = target: T15, Hse1, P38753; conditions: median of control spots 1727
Abp1, P15891 = target: T16, Abp1, P15891; conditions: median of control spots 935
Sla1-2, P32790 = target: T17, Sla1-2, P32790; conditions: median of control spots 712
Bbc1, P47068 = target: T18, Bbc1, P47068; conditions: median of control spots 796
Bzz1-1, P38822 = target: T19, Bzz1-1, P38822; conditions: median of control spots 4446
Bem1-1, P29366 = conditions: median of control spots 4282
Sequence of Bem1-1, P29366 (P29366 55-141): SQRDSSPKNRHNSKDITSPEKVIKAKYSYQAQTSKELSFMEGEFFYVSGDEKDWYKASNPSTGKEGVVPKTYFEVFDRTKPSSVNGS

Pin3, Q06449 = target: T20, Pin3, Q06449; conditions: median of control spots 2171
Myo3, P36006 = conditions: median of control spots 468
Fus1, P11710 = target: T21, Fus1, P11710; conditions: median of control spots 1200

Row | Binder | SPOT intensity (Boi1, P38041) | SPOT intensity (Bem1-2, P29366) | SPOT intensity (Hof1, Q05080) | SPOT intensity (Lsb4, P32793) | SPOT intensity (Lsb1, P53281) | SPOT intensity (Myo5, Q04439) | SPOT intensity (Lsb3, P43603) | SPOT intensity (Cdc25, P04821) | SPOT intensity (Sla1-3, P32790) | SPOT intensity (Boi2, P39969) | SPOT intensity (Nbp2, Q12163) | SPOT intensity (GST) | SPOT intensity (Cyk3, Q07533) | SPOT intensity (Pex13, P80667) | SPOT intensity (Sho1, P40073) | SPOT intensity (Bud14, P27637) | SPOT intensity (Rvs167, P39743) | SPOT intensity (Bzz1-2, P38822) | SPOT intensity (Hse1, P38753) | SPOT intensity (Abp1, P15891) | other results
1 | TEVPIPRRPPPPQAA | 0 | 0 | 0 | 108 | 0 | 141 | 46 | 0 | 0 | 0 | 0 | 3 | 0 | 0 | 0 | 0 | 0 | 0 | 0 | 0 | SPOT intensity (Sla1-2, P32790): 0; SPOT intensity (Bbc1, P47068): 3; SPOT intensity (Bzz1-1, P38822): 12; SPOT intensity (Bem1-1, P29366): 3; SPOT intensity (Pin3, Q06449): 0; SPOT intensity (Myo3, P36006): 367; SPOT intensity (Fus1, P11710): 0
2 | IPSRPAPKPPSSASA | 0 | 2680 | 0 | 21 | 493 | 447 | 10 | 0 | 29 | 0 | 1230 | 0 | 3 | 873 | 0 | 0 | 1 | 0 | 1 | 54 | SPOT intensity (Sla1-2, P32790): 0; SPOT intensity (Bbc1, P47068): 121; SPOT intensity (Bzz1-1, P38822): 6; SPOT intensity (Bem1-1, P29366): 2; SPOT intensity (Pin3, Q06449): 7; SPOT intensity (Myo3, P36006): 575; SPOT intensity (Fus1, P11710): 1
3 | KFIPSRPAPKPPSSA | 0 | 7700 | 0 | 78 | 692 | 339 | 41 | 0 | 199 | 0 | 2510 | 0 | 0 | 221 | 47 | 0 | 7 | 10 | 2 | 193 | SPOT intensity (Sla1-2, P32790): 0; SPOT intensity (Bbc1, P47068): 316; SPOT intensity (Bzz1-1, P38822): 0; SPOT intensity (Bem1-1, P29366): 0; SPOT intensity (Pin3, Q06449): 8; SPOT intensity (Myo3, P36006): 527; SPOT intensity (Fus1, P11710): 0
4 | APKHAPPPVPNETDN | 0 | 0 | 0 | 0 | 0 | 239 | 0 | 0 | 0 | 0 | 0 | 0 | 0 | 0 | 0 | 0 | 0 | 0 | 3 | 0 | SPOT intensity (Sla1-2, P32790): 0; SPOT intensity (Bbc1, P47068): 0; SPOT intensity (Bzz1-1, P38822): 0; SPOT intensity (Bem1-1, P29366): 0; SPOT intensity (Pin3, Q06449): 0; SPOT intensity (Myo3, P36006): 497; SPOT intensity (Fus1, P11710): 0
